From publication PMC4652225

Columns and labels:
[1] = target: GST-H1.2 wild type (human) (UniProt P16403); assay: pull-down; GST-H1.2 attached to glutathione beads, FITC-conjugated H3 peptides in solution; increasing KCl from 100 to 400 mM (Fig. S1A)
[2] = target: Flag-tagged K27-mutated (K27R) H3 (in mononucleosomes) (human) (UniProt P68431); assay: co-IP; MCF7 cells transfected with Flag-H3 WT or K27R; mononucleosomes by MNase digestion, immunoprecipitated with Flag antibody; Western blot with H1.2 antibody (Fig. 2A)

FITC-conjugated H3K27me0 peptide
fold weaker interaction than the H3K27me3 peptide at elevated KCl [1]: 3 fold

linker histone H1.2 (endogenous) (from UniProt P16403 1-213) (natural protein)
fold reduction of the interaction against wild type H3 nucleosomes [2]: 2.5 fold

FITC-conjugated H3K27me1 peptide
fold weaker interaction than the H3K27me3 peptide at elevated KCl [1]: 3 fold

FITC-conjugated H3K27me2 peptide
fold weaker interaction than the H3K27me3 peptide at elevated KCl [1]: 3 fold
